Results on 2 proteins are retold here after article PMC10616557 (iScience, 2023).

This data set deals with the molecule itself. As to the kind of experiment: cross-linking.

One may read the stoichiometry N as a count of units in the complex or per binding partner. With MGNASFGSKEQKLLKRLRLLPALLILRAFKPHRK (peptide, UniProt O95661 1-34, looked up) [DIRAS3 N-terminal extension peptide, wild type (NTEwt)], the “stoichiometry N” value stood at 2.

As for MANASFGSKEQKLLKRLRLLPALLILRAFKPHRK (peptide, UniProt O95661 1-34, looked up) [DIRAS3 NTE peptide with mutation of the glycine myristoylation site (NTEG2A)], the “stoichiometry N” value turned out to be 2.
